We go through 19 sequences from the DeepSol protein solubility set.

The data set can be described thus: soluble on expression in E. coli; label from the status in PepcDB or PDB records.
“MSLQSKTAKLPDNDRNRPLIQTFNDAQQKVWFDDALLHEDPSQCCNPEFWQQNGKVLGSATGRGTTWFVQLQQTQGALRHYRRGGLFGKLVADSYWFTGWEKTRSYQEFMLLNHLRDAGVNVPRPIAARVQKHGLLYKADLLSEKVPNARDLVSILQESPISDELYRKIGREIRKMHDAQVNHTDLNIHNILIDDQEKVWIIDFDKCYVQIGDSWKQGNLKRLKRSFEKEVCKRGINWSLEAFAIISSYKHEEEGHHHHHH”: the “soluble on expression in E. coli” value is “soluble”.

In the case of “MSLGFASQQEAVNDFWGWPSDESDKEAVEASIRKYANAIADTINKYGYDGFDIDYEPNYGNKGNIVDDDDRMFIFVDELGKHFGPKSGTGKLLIIDGEPQSIKNRPDVGPYFDYFIIQAYKPGNDNNLDKRLIDGGVAGPGLVQTYGSVMSEEQITKMTIMTENFEAVDAAMDGGYPYTDRYGNSMKSLEGMARWQPKNGFRKGGVGSYHMEAEYPTNPEYKNLRKAIQIMNPSTKPLIKYEGHHHHHH”, the “soluble on expression in E. coli” value is listed as “soluble”.

For “MSPAPELQIPTVTRQSDGTKIHEISGHKFKAVGLAQPTFCSFCSKFIYGVGKQGYKCLGCETVVHKRCHALITARCTFGPSSRAPVPAETTNLKTRRSRSASEEPPSNTHHFNKHFFTRPTFCDHCGSMLYGLTKQGVQCTDCHANVHFRCQEKVLRNCGIQCQ”, the “soluble on expression in E. coli” value is given as “not soluble”.

For the sequence “MQLSPKEFEYQFRCLYRPLNMYALRYTENLDDAEDIVQQAFSDVWEKLVGGTSIQNLKAYMYQTVRNRSLTLITNRQTHCETTELTDLEDLTEEERIIRSERDARLWTAIDHLPTERKKIFLLSKRDGLTYQEIATELGISIKTVEHQISKALKTLRETAIKIYTFFFG”, the “soluble on expression in E. coli” value is reported as “not soluble”.

Take “MRGSHHHHHHGSIWEWKEAHFQDAFSSFQAMYAKSYATEEEKQRRYAIFKNNLVYIHTHNQQGYSYSLKMNHFGDLSRDEFRRKYLGFKKSRNLKSHHLGVATELL”: the “soluble on expression in E. coli” value is given as “soluble”.

In the case of “MGSDKIHHHHHHMKGFLQTVTGPVAHTDMGLTLPHEHLFNDLSSVVDEPHYAFSQQLVGKKVSADLQWGLKHDPYCCADNMDRKEIDDVIFEINNFMSLGGRTIVDATGSESIGRDASALREVALKTGLNIVASSGPYLEKFESTRIHKPVELLASLIDKELNQGIGETDIRAGMIGEIGVSPAFTQAERNSLRAASLAQCNNPHTAMNIHMPGWLRLGDEVLDIVLEEMNVSPAKVSLAHSDPSGKDVVYQRKMLDRGVWLEFDMIGLDITFPKEGVAPGVQETADAVANLIALGYADQIVLSHDVFLKQMWAKNGGNGWGFVPNVFLAYLAARGVDNDTLRKLCIDNPARLLTA”, the “soluble on expression in E. coli” value is “not soluble”.

In the case of “MGSDKIHHHHHHMTMVLDQVVPFGRSMDEYIKIFNLTDADLNKKIIGIGDGPASFNAEMTRQGKSVISVDPLYQFSGDEILQRFNEVLDNIINQVKATSNNWVWSYHKSPDDLRHNRVKVIREFLSDYENGKKSNRYIVDEFPKLKFKTQEFEIALCSHLLFLYSDHLDYDFHLNSIGEMLRIAKEIRIFPLITLMWKHSQHLDEIVKHYTSIGYKIDIENVEYELQPGGNKMLKITRDFYKNHNL”, the “soluble on expression in E. coli” value was “not soluble”.

For the sequence “MSQTAAPLAQLNAMDTAQFVRTLGGIYEHSPWVAEQAAGQRPFASADALAAAMRRAVDGAGEGPQLKLVRAHPELAGKAAVRGELTAESTREQASAGLDQCSPEEFARLQALNARYNDKFGFPFILAVRGYDRHGIIDVFARRLENDRATELRASLEQIHRIAGFRLHDLISGKLAAALEHHHHHH”, the “soluble on expression in E. coli” value is listed as “not soluble”.

Turning to “MPRALNDRSSALTAQNLIALPERFGCPVWAYDGDIIAERINQLRHFDVIRFAQKACSNIHILRLMREQGVKVDSVSLGEIERALHAGYQPGQEPAEIVFTADLLDQATLLRVTELNIPVNAGSIDMLDQLGQQAPGHPVWLRVNPGFGHGHSQKTNTGGENSKHGIWHEELPRALKKIEHYGLTLVGIHMHIGSGVDYQHLEQVCDAMVQQVITLGHDISAISAGGGLSIPYQFGDDVIDTEHYYGLWNSARERIAAHLGHPVSLEIEPGRFLVAESGVLIAQVRAVKDMGRRHYVLVDAGFNDLMRPAMYGSYHHISLLPADGRDLTSAPLIDTVVAGPLCESGDVFTQQEGGGVETLALPAAVIGDYLVFHDTGAYGASMSSNYNSRPLLPEVLFEKGQPRLIRRRQTIEELIDLERV”, the “soluble on expression in E. coli” value is recorded as “not soluble”.

Take “TETMTVTATGNARSSFEAPMMVSVIDTSAPENQTATSATDLLRHVPGITLDGTGRTNGQDINMRGYDHRGVLVLVDGIRQGTDTGHLNGTFLDPALIKRVEIVRGPSALLYGSGALGGVISYDTVDAKDLLQEGQSSGFRVFGTGGTGDHSLGLGASAFGRTENLDGIVAWSSRDRGDLRQSNGETAPNDESINNMLAKGTWQIDSAQSLSGLVRYYNNDAREPKNPQTVEASESSNPMVDRSTIQRDAQLSYKLAPQGNDWLNADAKIYWSEVRINAQNTGSSGEYREQITKGARLENRSTLFADSFASHLLTYGGEYYRQEQGSHHHHHHHPGGATTGFPQAKIDFSSGWLQDEITLRDLPITLLGGTRYDSYRGSSDGYKDVDADKWSSRAGMTINPTNWLMLFGSYAQAFRAPTMGEMYNDSKHFSIGRFYTNYWVPNPNLRPETNETQEYGFGLRFDDLMLSNDALEFKASYFDTKAKDYISTTVDFAAATTMSYNVPNAKIWGWDVMTKYTTDLFSLDVAYNRTRGKDTDTGEYISSINPDTVTSTLNIPIAHSGFSVGWVGTFADRSTHISSSYSKQPGYGVNDFYVSYQGQQALKGMTTTLVLGNAFDKEYWSPQGIPQDGRNGKIFVSYQW”: the “soluble on expression in E. coli” value is “soluble”.

On to “MLYASYMSYVSIKMHASSNGAHISGAETLVDESRAYEFLSSFYQRANTHSKGKPEITTLTIRRIKDADIITIPALEVKCLPALHPSEAHRQVIEQLSNVVSPTIAQMALHTVLNARNMRGAILLCAHTGQRLDPYDPQRGVRASTFGVTPQESAGPTLNKSHFNEALVLASKVMSAPGIVAEICISDDPAYTTGYVTTENTYIRIPHMKDPYSPIGGRVFLLDTRVSTPEDTISYLEQKPVLITGVN”, for which the “soluble on expression in E. coli” value is “not soluble”.

Turning to “MNTQSPPSPHDPHGAAALPFRLWTAEERRASLDTALREWRDGEDVWVYGYGSLIWRPDFDFVERRLATLHGHHRALCLWSRVNRGTPECPGLVFGLDRGGSCRGVVYRLAGRQVPDYFPALWDREMSTGAYLPRWLRCATEHGPVNALVFIMNRANPAYIRALPEPELLAIVRRASGRYGPCTEYVVQTAQALRQAGIRDARLEQIARQLEADVHPLGVLEHHHHHH”, the “soluble on expression in E. coli” value is recorded as “not soluble”.

On to “MKVIAFVGKHNVGKTTLIERLIPKLKEKGYRVCYLKHDPKGHGVTDKEGSDTHRISKLVEKLALLSPNRVTYWEWGEFKPLEIVKRFFSDCDIVILEGFKWEEEIPKISVGKVDAKNVILTVDRETPLEDIIKVIESLEDMV”, for which the “soluble on expression in E. coli” value is “soluble”.

For the sequence “MLMFDPVPVKQEAMDPVSVSYPSNYMESMKPNKYGVIYSTPLPEKFFQTPEGLSHGIQMEPVDLTVNKRSSPPSAGNSPSSLKFRSSHRRASPGLSMPSSSPPIKKYSPPSPGVQHFGVPLSMPPVMAAALSRHGIRSPGILPVIQPVVVQPVPFMYTSHLQQPLMVSLSEEMENSSSSMQVPVIESYEKPISQKKIKIEPGIEPQRTDYYPEEMSPPLMNSVSPPQALLQE”, the “soluble on expression in E. coli” value is “soluble”.

For the sequence “SSYADFVWFLISEEDKRNPTSIEYWFRCMDVDGDGILSMYELEYFYEEQCERMEAMGIEPLPFHDLLCQMLDLVKPASDGRITLRDLKRCRMAHIFYDTFFNLEKYLDHEQRDPFAVQKDVENDGPEPSDWDRFAAEEYEALVTEESAQVQLQEGSFEDYESDEPVSPSELGNKGNKIVTSSLSEKCGKLQSVDEE”, the “soluble on expression in E. coli” value is listed as “soluble”.

Turning to “MGSDKIHHHHHHMAAGRDTALLMMNLMNAPVPLSPALELALPVDTAVVGVGYFGSLHALCYSRLPGSRLQALIDPDPITQFLAEHLGVPWFPGVAELPSTIRAVSVATPVAMHFGLTRSLLQQGLDVLLEKPIAETAAQATELRMVAEANQCILQIGHIERFNPAYTAGGTLLPFARTVRSVRTTRHPPRSSALDVVIDLMIHDLDLILHSLDSSVVELRASGRSCGLTAIDEAEVELTFSNGCRVYLDAHWGRDTEQDARCMVAELENDETWVIDFRRRMTYRKEPGSSTGPLPADGHTLPFPMQRIQEDTLSLQLAAFLDACRNRSLPRVTPAEGNAALELAHCIRQQILRPCP”, the “soluble on expression in E. coli” value is on record as “not soluble”.

Take “MSLNGDNQQILREIVLNPTIHGKELESIFGLSRRQLGYRIQKINLWLEQEGYPKLERTSQGNFIVSSEIMTLFKRDVSEQQMLNGNNVIFSIETRRYYLMLMLFSKENAMSLNHFSIDLQVSKNTVIHDINHVKEQLENHGLSLKYSRKHGYEIVGDEFEVRRFFIKLIDQRLNHDITKSEVLKALNLTFEDIAYQKDKIKQVEQFLKSRFIDKSLSSLPYVLCVIRRRIQSGHVMNPLNINYQYLRDTKEYQATEIMTQHEPDLPEAEKLYLTLHLLSTSVQWTDLQESDSISNLTMAIAQMIHHFEQITFINIEDKEKLSQQLLLHLTPAFYRIKYNLTDRDELINPLQGNYQSLFHMVKQSCQSLTEYFGKSLPDNEIAYLTMLFGGSLRREGHHHHHH”: the “soluble on expression in E. coli” value was “soluble”.

For “GPGSMLPTVPCFGSQWCIESVMDLSGLVPTSKELTEGQREHIRDLQYEIDEIWNRRGDYKIDSSAWEQMPLFMENITEEDLQRNADCAALASIAYDDVPPEEVAESRKQHGNRAIQLALDPKQVNKENLARATVHCYTEGLAAKCKDPVLNSQLYANRSLAQYIIHNYGHGLEDAQRAIILDPDYYKAYYRAARCAERIGKYDLALDLLAKGRRTNPAPVGRALEDFVDIERVCREGKERAESKKKKENLSTRVKAAQTSSTLRCVTSSGVRCSPRAEVSSEQMGVYGHHEPYFDSEGLLHVPILFMYDEYQQTDFMQDVSCDVCVGELLDELMPFPWDDRGRYQRIDDILVVYKIDGGVKDPKYYEVDLSLPLMEVFRSESYQMPALLPVLHIICKHSDMLTEWDVQMLR”, the “soluble on expression in E. coli” value is recorded as “soluble”.

For “MATFGFLSAPLKSTNEVDLVKPLTSYIDNVYNTSDNNRSDVAEAVQELNKLRSKACCQPLDKHQSALDVLTRYYDQLVAIENKIIISATQNPVVFKWKDAFDKGSLFSSRASLSLSDGSFERAAVLFNIGSLMSQIGAAQQFHTDDEIKVSAKLFQQSAGVFARLRDVVLGMVQQEPTPDLMPDTLAALSALMTAQAQEAIYIKGHKDKMKATSMVKISAQVAEFYSEAQKMMSKDIVRGLWDKDWSAIVSGKNLAYQALAQYHQSEVCGEARQIGEQLSRLAESLKLFDTAQKYLPRDITGIWDIYPSVSKAHAAAKKDNDFIYHEKVSDFRTLPTLPKAVLAKPTPMQTPMTPSFRDMFAVLVPVQVHNAMQSYDARKAELVNMETVRMREATQLMNGVLASLNLPAALDDVTSTETLPESLKLKSAKLKQNGGSSEIMRLFSELPTLYQRNEDILTETSRILNEEKESDDTMRKQLGTKWTRMSSEQLTGPLVTEIGKYRGILHTASNADKMVKEKFESHRQGIELLSKNESELRSSIPGQTAHATGETDTVRQLRQFMSQWNEVTTDRELLEKELKNTNCDIANDFLKAMAENQLINEEHISKEKIAQIFGDLKRRVQSSLDTQETLMNQIQAANNTFTGEKTGSSTGAERERILKMLAQASDAYVELKANLEEGTKFYNDLTPILVRLQQKVSDFAFARQTEKEDLMRQLQLSIVSGTNAAQSPANAPPRPPPPRPAAPSVESPIPPPRTQQSMQATPGAPPQYNPYQQQQQPQMQQFQQHPGYYQQPMPYGQPQPMFQPQYQPTFAAPYPTFPGAFPSYQQQWPQQQQQGGFPPNPQFGQQNQQQGGGGGANPFQ”, the “soluble on expression in E. coli” value was “not soluble”.
